{
  "source": "patent US20150376237A1",
  "about": "“POLYPEPTIDES FOR BLOOD BRAIN BARRIER TRANSPORT” (SAGETIS BIOTECH, SL, priority 2012, published 2015)",
  "system": "in vitro BBB model (bovine brain endothelial cells co-cultured with mouse mixed glial cells)",
  "experiment": "Fluorescently-labelled peptide in vitro BBB model crossing test",
  "conditions": "fluorescent peptide, 20 μg/ml fluorophore in DMEM/F12, 60 min at 37° C.",
  "experimental": "Mouse primary cultures of mixed glial cells are seeded on a 24-well plate and bovine brain endothelial cells are cultured on collagen-coated inserts in another plate. After three days, the inserts are moved into astrocyte-containing plates and cultured for a further three days. To assess the integrity of the in vitro BBB, trans-endothelial electrical resistance (TEER) is measured on the day of the experiment. TEER values higher than 200Ω/cm^2 are considered acceptable.\nPeptides are applied at 20 μg/ml of fluorophore in the luminal side of the inserts and placed in wells filled with Ringer-Hepes buffer (the composition of Ringer-Hepes buffer is described above). After 1 h incubation, samples from the upper and lower compartments are collected and measured using a fluorimeter. […]\nAll samples (t=0 up, t=0 down, t=60 up and t=60 down) from each condition (testing peptides and negative control) are plated in black 96-well microplates as well as the corresponding standard curves. Fluorescence is measured using a multi-well plate reader. […]\nThe endothelial permeability coefficient values for LY and the tested peptide are also determined. […] The increment in cleared volume between the incubation times is calculated by dividing the amount of transported compound by the donor chamber concentration and calculating the total volume cleared, as shown below: […]",
  "data": [
    {"substance": "SEQ ID NO: 12: GDAAAAKAAKAAAKAAADGY, rigid polypeptide, single domain binder (Rigid_1)", "values": [
      {"measurement": "Percentage BBB crossing", "value": "Percentage BBB crossing: 7.51%"}
    ]}
  ]
}
